Experimental data reported in US7662384B2, “Use of anti-α5β1 antibodies to inhibit cancer cell proliferation” (Facet Biotech Corporation, priority 2004, dated 2010).

Legend:
[1] = target: T1, α5β1 integrin on the cell surface of HT1376 (Homo sapiens, UniProt P05556+P08648); assay: FACS analysis of cancer cell line with IIA1; format: binding; conditions: HT1376 (bladder); IIA1 10 μg/ml; background MFI ~5
T1 construct: endogenous in cells
Protocol: Cells were removed with 5 mM EDTA in Tris-HCl (pH 8.0) and blocked by centrifugation in Hank's balanced salt solution containing 3% heat inactivated FBS, 1% normal goat serum (Sigma) and 1% BSA at 4° C. for 5 minutes. Cells were incubated for 30-60 minutes at 4° C. with the mouse anti-α5β1 antibody, IIA1 (10 μg/ml) in FACS buffer (PBS containing 0.1% BSA). Excess monoclonal antibody was removed by centrifugation and cells were washed two times with FACS buffer prior to resuspending in PE-anti-mouse IgG (H+ L) antibody (Southern Biotech, 1:400 dilution) for 30-60 minutes at 4° C. After washing cells were re-suspended in FACS buffer containing propidium iodide (1 μg/ml). Mean fluorescence intensity (MFI) was measured on a FACSCalibur (Becton Dickinson). Background MFI was ˜5.

HT1080 = assay: M200 in vitro cell proliferation assay; format: cell-based; conditions: HT1080 (fibrosarcoma), 4-day assay
Protocol: (§1) Cancer cell lines were plated at a density of 2500 cells/well in 96-well plates in IMDM with supplements in the presence or absence of 10% FBS. At the time of plating, cells were challenged with various concentrations M200 or a non-function blocking anti-α5 antibody, VC5. Four days later, cell viability was assessed by the CellTiter 96 AQueous Non-Radioactive Cell Proliferation Assay (Promega) according to the manufacturer's instructions. All growth studies were done at least 3 times in triplicate.

HCT-116 = assay: M200 in vitro cell proliferation assay; format: cell-based; conditions: HCT-116 (colon), 4-day assay
Protocol: as §1

EKVX = assay: M200 in vitro cell proliferation assay; format: cell-based; conditions: EKVX (lung), 4-day assay
Protocol: as §1

SN12C = assay: M200 in vitro cell proliferation assay; format: cell-based; conditions: SN12C (renal), 4-day assay
Protocol: as §1

SW839 = assay: M200 in vitro cell proliferation assay; format: cell-based; conditions: SW839 (renal), 4-day assay
Protocol: as §1

COLO 357 = assay: M200 in vitro cell proliferation assay; format: cell-based; conditions: COLO 357 (pancreas), 4-day assay
Protocol: as §1

SW1990 = assay: M200 in vitro cell proliferation assay; format: cell-based; conditions: 4-day assay
Protocol: as §1

A498 = assay: M200 in vitro cell proliferation assay; format: cell-based; conditions: A498 (renal), 4-day assay
Protocol: as §1

ES-2 = assay: M200 in vitro cell proliferation assay; format: cell-based; conditions: ES-2 (ovarian), 4-day assay
Protocol: as §1

786-0 = assay: M200 in vitro cell proliferation assay; format: cell-based; conditions: 786-0 (renal), 4-day assay
Protocol: as §1

A2058 = assay: M200 in vitro cell proliferation assay; format: cell-based; conditions: A2058 (melanoma), 4-day assay
Protocol: as §1

CHL-1 = assay: M200 in vitro cell proliferation assay; format: cell-based; conditions: CHL-1 (melanoma), 4-day assay
Protocol: as §1

H460 = assay: M200 in vitro cell proliferation assay; format: cell-based; conditions: H460 (lung), 4-day assay
Protocol: as §1

HT1376 = assay: M200 in vitro cell proliferation assay; format: cell-based; conditions: HT1376 (bladder), 4-day assay
Protocol: as §1

DU145 = assay: M200 in vitro cell proliferation assay; format: cell-based; conditions: DU145 (prostate), 4-day assay
Protocol: as §1

A549 = assay: M200 in vitro cell proliferation assay; format: cell-based; conditions: A549 (lung), 4-day assay
Protocol: as §1

ASPC-1 = assay: M200 in vitro cell proliferation assay; format: cell-based; conditions: ASPC-1 (pancreas), 4-day assay
Protocol: as §1

UACC-62 = assay: M200 in vitro cell proliferation assay; format: cell-based; conditions: UACC-62 (melanoma), 4-day assay
Protocol: as §1

A375 = assay: M200 in vitro cell proliferation assay; format: cell-based; conditions: A375 (melanoma), 4-day assay
Protocol: as §1

CAPAN-2 = assay: M200 in vitro cell proliferation assay; format: cell-based; conditions: CAPAN-2 (pancreas), 4-day assay
Protocol: as §1

HT144 = assay: M200 in vitro cell proliferation assay; format: cell-based; conditions: HT144 (melanoma), 4-day assay
Protocol: as §1

TK-10 = assay: M200 in vitro cell proliferation assay; format: cell-based; conditions: TK-10 (renal), 4-day assay
Protocol: as §1

MIA PACA-2 = assay: M200 in vitro cell proliferation assay; format: cell-based; conditions: MIA PACA-2 (pancreas), 4-day assay
Protocol: as §1

CAPAN-1 = assay: M200 in vitro cell proliferation assay; format: cell-based; conditions: CAPAN-1 (pancreas), 4-day assay
Protocol: as §1

C8161 = assay: M200 in vitro cell proliferation assay; format: cell-based; conditions: C8161 (melanoma), 4-day assay
Protocol: as §1

C32 = assay: M200 in vitro cell proliferation assay; format: cell-based; conditions: C32 (melanoma), 4-day assay
Protocol: as §1

angiogenesis = conditions: rabbit eye model; cited from earlier work

T1 sequence (P08648 42-894 limits assumed): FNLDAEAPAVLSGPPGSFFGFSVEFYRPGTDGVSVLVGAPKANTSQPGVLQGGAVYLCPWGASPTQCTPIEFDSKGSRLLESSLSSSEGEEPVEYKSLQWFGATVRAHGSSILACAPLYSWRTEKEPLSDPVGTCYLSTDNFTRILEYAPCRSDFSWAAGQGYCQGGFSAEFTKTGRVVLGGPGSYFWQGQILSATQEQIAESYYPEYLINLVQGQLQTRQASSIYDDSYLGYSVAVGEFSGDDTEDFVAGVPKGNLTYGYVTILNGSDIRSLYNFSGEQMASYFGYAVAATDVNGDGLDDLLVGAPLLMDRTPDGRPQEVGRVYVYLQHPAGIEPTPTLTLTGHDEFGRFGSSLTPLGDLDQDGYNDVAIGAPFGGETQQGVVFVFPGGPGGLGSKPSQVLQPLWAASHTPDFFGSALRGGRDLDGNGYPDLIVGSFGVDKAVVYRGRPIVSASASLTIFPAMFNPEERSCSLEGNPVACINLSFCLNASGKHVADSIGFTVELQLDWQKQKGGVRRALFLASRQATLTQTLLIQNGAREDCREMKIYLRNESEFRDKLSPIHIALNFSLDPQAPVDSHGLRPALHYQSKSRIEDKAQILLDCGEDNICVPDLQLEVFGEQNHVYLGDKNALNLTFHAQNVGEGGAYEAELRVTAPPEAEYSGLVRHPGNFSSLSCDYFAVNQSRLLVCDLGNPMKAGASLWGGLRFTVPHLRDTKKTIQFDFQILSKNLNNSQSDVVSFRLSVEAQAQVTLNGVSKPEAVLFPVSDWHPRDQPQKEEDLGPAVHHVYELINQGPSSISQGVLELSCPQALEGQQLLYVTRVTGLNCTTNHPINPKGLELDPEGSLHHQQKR
T1 sequence (P08648 895-1049 limits assumed): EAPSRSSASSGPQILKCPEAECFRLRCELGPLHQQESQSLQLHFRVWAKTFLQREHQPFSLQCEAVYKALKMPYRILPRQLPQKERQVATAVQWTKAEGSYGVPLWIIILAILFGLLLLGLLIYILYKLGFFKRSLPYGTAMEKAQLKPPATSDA
T1 sequence (P05556 21-798): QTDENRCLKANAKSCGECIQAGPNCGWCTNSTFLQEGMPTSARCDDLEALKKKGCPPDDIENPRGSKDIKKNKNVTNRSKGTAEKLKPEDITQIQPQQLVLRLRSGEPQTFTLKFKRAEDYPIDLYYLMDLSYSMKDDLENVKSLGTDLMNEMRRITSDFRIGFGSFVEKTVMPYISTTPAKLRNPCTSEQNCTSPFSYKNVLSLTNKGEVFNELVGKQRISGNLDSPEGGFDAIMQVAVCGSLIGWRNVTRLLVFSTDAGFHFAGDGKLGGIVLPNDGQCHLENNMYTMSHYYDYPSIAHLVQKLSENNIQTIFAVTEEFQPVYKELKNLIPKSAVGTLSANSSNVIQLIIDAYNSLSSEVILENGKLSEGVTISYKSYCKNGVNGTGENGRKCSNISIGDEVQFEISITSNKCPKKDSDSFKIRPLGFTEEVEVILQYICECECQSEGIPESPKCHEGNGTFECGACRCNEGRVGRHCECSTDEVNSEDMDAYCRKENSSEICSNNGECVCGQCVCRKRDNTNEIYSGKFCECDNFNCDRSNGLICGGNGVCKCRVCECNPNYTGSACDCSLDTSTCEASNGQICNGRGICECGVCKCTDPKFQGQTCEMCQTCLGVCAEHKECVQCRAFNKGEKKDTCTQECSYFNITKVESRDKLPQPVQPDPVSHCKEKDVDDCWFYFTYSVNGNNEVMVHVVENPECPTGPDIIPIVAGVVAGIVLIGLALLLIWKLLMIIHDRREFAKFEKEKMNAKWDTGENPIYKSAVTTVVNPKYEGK

B1: IIA1: parent mouse IgG1 class anti-α5β1 antibody shown to inhibit α5β1 integrin binding to fibronectin (antibody, V domains shown)
VH: MAVLGLLLCLVTFPSCVLSQVQLKESGPGLVAPSQSLSITCTISGFSLTDYGVHWVRQPPGKGLEWLVVIWSDGSSTYNSALKSRMTIRKDNSKSQVFLIMNSLQTDDSAMYYCARHGTYYGMTTTGDALDYWGQGTSVTVSS
VL: MDFQVQIFSFLLISASVIMSRGQIVLTQSPAIMSASLGERVTMTCTASSSVSSNYLHWYQQKPGSAPNLWIYSTSNLASGVPARFSGSGSGTSYSLTISSMEAEDAATYYCHQYLRSPPTFGGGTKLEIK
modifications: mus muscalus
For B1, the “α5β1 Surface Expression (MFI)” value [1] was 111.9 MFI.

B2: M200: chimeric IgG4 anti-α5β1 antibody derived from IIA1; generic name volociximab (antibody, V domains shown)
VH: MAVLGLLLCLVTFPSCVLSQVQLKESGPGLVAPSQSLSITCTISGFSLTDYGVHWVRQPPGKGLEWLVVIWSDGSSTYNSALKSRMTIRKDNSKSQVFLIMNSLQTDDSAMYYCARHGTYYGMTTTGDALDYWGQGTSVTVSS
VL: MDFQVQIFSFLLISASVIMSRGQIVLTQSPAIMSASLGERVTMTCTASSSVSSNYLHWYQQKPGSAPNLWIYSTSNLASGVPARFSGSGSGTSYSLTISSMEAEDAATYYCHQYLRSPPTFGGGTKLEIKDMSVDMSV
modifications: chimeric antibody
notes: chimeric IgG4 anti-α5β1 antibody derived from IIA1; generic name volociximab
In the case of B2, the “% Growth Inhibition +Serum” value (HT1080; 10% FBS) is reported as 0%, the “% Growth Inhibition −Serum” value (HT1080; absence of serum) is reported as 0% and the “% Growth Inhibition +Serum” value (HCT-116; 10% FBS) is reported as 0%. The “% Growth Inhibition −Serum” value (HCT-116; absence of serum) was 15%, the “% Growth Inhibition +Serum” value (EKVX; 10% FBS) was 0% and the “% Growth Inhibition −Serum” value (EKVX; absence of serum) was 10%. For the same molecule, the “% Growth Inhibition +Serum” value (SN12C; 10% FBS) was 0%, the “% Growth Inhibition −Serum” value (SN12C; absence of serum) was 5% and the “% Growth Inhibition +Serum” value (SW839; 10% FBS) was 0%. The “% Growth Inhibition −Serum” value (SW839; absence of serum) was 30%, the “% Growth Inhibition +Serum” value (COLO 357; 10% FBS) was 0% and the “% Growth Inhibition −Serum” value (COLO 357; absence of serum) was 0%. The “% Growth Inhibition +Serum” value (SW1990; 10% FBS) was 0%, the “% Growth Inhibition −Serum” value (SW1990; absence of serum) was 10% and the “% Growth Inhibition +Serum” value (A498; 10% FBS) was 0%. The “% Growth Inhibition −Serum” value (A498; absence of serum) was 5%, the “% Growth Inhibition +Serum” value (ES-2; 10% FBS) was 0% and the “% Growth Inhibition −Serum” value (ES-2; absence of serum) was 0%. For the same molecule, the “% Growth Inhibition +Serum” value (786-0; 10% FBS) was 0%, the “% Growth Inhibition −Serum” value (786-0; absence of serum) was 10% and the “% Growth Inhibition +Serum” value (A2058; 10% FBS) was 0%. For the same molecule, the “% Growth Inhibition −Serum” value (A2058; absence of serum) was 0%, the “% Growth Inhibition +Serum” value (CHL-1; 10% FBS) was 0% and the “% Growth Inhibition −Serum” value (CHL-1; absence of serum) was 0%. The “% Growth Inhibition +Serum” value (H460; 10% FBS) was 0%, the “% Growth Inhibition −Serum” value (H460; absence of serum) was 40% and the “% Growth Inhibition +Serum” value (HT1376; 10% FBS) was 0%. The “% Growth Inhibition −Serum” value (HT1376; absence of serum) was 0%, the “% Growth Inhibition +Serum” value (DU145; 10% FBS) was 0% and the “% Growth Inhibition −Serum” value (DU145; absence of serum) was 0%. For the same molecule, the “% Growth Inhibition +Serum” value (A549; 10% FBS) was 0%, the “% Growth Inhibition −Serum” value (A549; absence of serum) was 40% and the “% Growth Inhibition +Serum” value (ASPC-1; 10% FBS) was 0%. The “% Growth Inhibition −Serum” value (ASPC-1; absence of serum) was 0%, the “% Growth Inhibition +Serum” value (UACC-62; 10% FBS) was 0% and the “% Growth Inhibition −Serum” value (UACC-62; absence of serum) was 0%. For the same molecule, the “% Growth Inhibition +Serum” value (A375; 10% FBS) was 0%, the “% Growth Inhibition −Serum” value (A375; absence of serum) was 5% and the “% Growth Inhibition +Serum” value (CAPAN-2; 10% FBS) was 0%. The “% Growth Inhibition −Serum” value (CAPAN-2; absence of serum) was 0%, the “% Growth Inhibition +Serum” value (HT144; 10% FBS) was 0% and the “% Growth Inhibition −Serum” value (HT144; absence of serum) was 0%. For the same molecule, the “% Growth Inhibition +Serum” value (TK-10; 10% FBS) was 0%, the “% Growth Inhibition −Serum” value (TK-10; absence of serum) was 0% and the “% Growth Inhibition +Serum” value (MIA PACA-2; 10% FBS) was 0%. The “% Growth Inhibition −Serum” value (MIA PACA-2; absence of serum) was 20%, the “% Growth Inhibition +Serum” value (CAPAN-1; 10% FBS) was 0% and the “% Growth Inhibition −Serum” value (CAPAN-1; absence of serum) was 0%. For the same molecule, the “% Growth Inhibition +Serum” value (C8161; 10% FBS) was 0%, the “% Growth Inhibition −Serum” value (C8161; absence of serum) was 0% and the “% Growth Inhibition +Serum” value (C32; 10% FBS) was 0%. For the same molecule, the “% Growth Inhibition −Serum” value (C32; absence of serum) was 0% and the “in vivo anti-angiogenic efficacy” value (angiogenesis) was “in vivo anti-angiogenic efficacy”.
